T1: mouse recombinant TGFbR2-Fc protein (mouse, UniProt Q62312-1 24-184, limits assumed)
T1 construct: also called mouse TGFbR2; not shown: Fc part of the fusion protein
T1 sequence (looked up): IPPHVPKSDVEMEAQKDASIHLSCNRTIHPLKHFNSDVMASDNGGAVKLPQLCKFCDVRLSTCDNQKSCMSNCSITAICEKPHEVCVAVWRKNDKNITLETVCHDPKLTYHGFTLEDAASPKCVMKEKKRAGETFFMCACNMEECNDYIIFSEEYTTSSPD


Columns and labels:
hTGFβR2-Fc [1] = target: T2, hTGFβR2-Fc (human, UniProt P37173 23-159); assay: ELISA, human recombinant TGFbR2-Fc as capture, mouse CAR-T supernatant, anti-flag HRP detection
T2 construct: Bought (RnD Systems); also called TGFbR2-Fc; human recombinant TGFbR2-Fc protein; not shown: Fc part of the bought fusion protein
Protocol: (§1) Supernatant from TGF-β modulating CAR-T cells were assayed by ELISA to detect anti-TGF-β and anti-TGFβR2 antibodies. Maxisorp 96 well plates were coated with recombinant human TGF-β […] or hTGFβR2-Fc (0.1 mg/ml; RnD System) in 100 μl coating buffer overnight at 4° C. Plates were washed with 1× wash buffer and blocked for 1 hour with reagent diluent at room temperature. CAR-T supernatant, recombinant TGFβR2-flag, or recombinant TGF-3-flag antibody was added and incubated for 2 hours at room temperature.
(§2) After another washing step, HRP-conjugated flag-tag antibody was added and incubated for 30 minutes at room temperature. Plates were washed and TMB substrate was added for 10-20 minutes. The reaction was stopped using Stop reagent and plates were read at 450 nm using a Pherastar Plate reader. ELISA using coated TGF-b detected high levels of TGF-b scFv VH-VL1 and TGF-b scFv VH-VL2 as compared to TGF-b scFv VL-VH using anti-flag tag HRP antibodies for binder detection (FIG. 3A). ELISA using coated TGFbR2-Fc detected high levels of TGFbR2 scFv VH-VL, TGFbR2 scFv VL-VH and hTGFbR2 VH1 from human CAR-T but was unable to detect mTGFbR2 VH1 (FIG. 3B). […]
(§3) Supernatant was harvested two days after transduction and frozen at −80′C until used for ELISA. […] Binding was detected using anti-flag HRP antibodies and the respective substrate. […]

[2] = target: T1, mouse recombinant TGFbR2-Fc protein; assay: ELISA, mouse recombinant TGFbR2-Fc as capture, mouse CAR-T supernatant, anti-flag HRP detection
Protocol: as §1
(§4) After another washing step, HRP-conjugated flag-tag antibody was added and incubated for 30 minutes at room temperature. Plates were washed and TMB substrate was added for 10-20 minutes. The reaction was stopped using Stop reagent and plates were read at 450 nm using a Pherastar Plate reader. ELISA using coated TGF-b detected high levels of TGF-b scFv VH-VL1 and TGF-b scFv VH-VL2 as compared to TGF-b scFv VL-VH using anti-flag tag HRP antibodies for binder detection (FIG. 3A). ELISA using coated TGFbR2-Fc detected high levels of TGFbR2 scFv VH-VL, TGFbR2 scFv VL-VH and hTGFbR2 VH1 from human CAR-T but was unable to detect mTGFbR2 VH1 (FIG. 3B). TGF-β binders and TGFβR2 binders were secreted by TGF-β modulating CAR-T cells and bind to their cognate antigen.
Supernatant was harvested two days after transduction and frozen at −80′C until used for ELISA. ELISA was performed as described in Example 3. Human recombinant TGFbR2-Fc protein was used for capturing binders against human TGFbR2 and mouse recombinant TGFbR2-Fc protein was used for probing binding of TGFbR2 binders to mouse TGFbR2. Binding was detected using anti-flag HRP antibodies and the respective substrate. […] None of the binders from the tested supernatants bound to mouse TGFbR2 confirming specificity for human TGFBR2.

hTGFβR2-Fc [3] = target: T2, hTGFβR2-Fc; assay: ELISA, plate coated with hTGFβR2-Fc, human CAR-T supernatant, anti-flag HRP detection
Protocol: as §1, §4

hTGFβR2-Fc [4] = target: T2, hTGFβR2-Fc; assay: ELISA (figure legend)
Protocol: as §1, §2, §3

hTGFβR2-Fc [5] = target: T2, hTGFβR2-Fc; assay: ELISA, plate coated with hTGFβR2-Fc, CAR-T supernatant, anti-flag HRP detection
Protocol: as §1, §4

T2 sequence (P37173 23-159 limits assumed): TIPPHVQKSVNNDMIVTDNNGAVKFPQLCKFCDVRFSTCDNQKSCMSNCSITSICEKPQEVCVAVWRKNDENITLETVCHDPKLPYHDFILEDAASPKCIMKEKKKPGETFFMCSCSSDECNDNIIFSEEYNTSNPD

Row | Binder | binding result [2] | other results
1 | TGFbR2 scFv VH-VL (scFv, Secreted into CAR-T cell supernatant; Detected with anti-flag HRP; also called hTGFbR2 scFv VH-VL monomer; TGFbR2 scFv VH-VL monomer) scFv: QLQVQESGPGLVKPSETLSLTCTVSGGSISNSYFSWGWIRQPPGKGLEWIGSFYYGEKTYYNPSLKSRATISIDTSKSQFSLKLSSVTAADTAVYYCPRGPTMIRGVIDSWGQGTLVTVSSGGGGSGGGGSGGGGSEIVLTQSPATLSLSPGERATLSCRASQSVRSYLAWYQQKPGQAPRLLIYDASNRATGIPARFSGSGSGTDFTLTISSLEPEDFAVYYCQQRSNWPPTFGQGTKVEIK | no binding | binding result (hTGFβR2-Fc [1]): binds
2 | hTGFbR2 scFv VH-VL G4S dimer (scFv, Built here from its name (scFv - G4S - scFv); Flag-tagged; also called TGFbR2 scFv VH-VL dimer) QLQVQESGPGLVKPSETLSLTCTVSGGSISNSYFSWGWIRQPPGKGLEWIGSFYYGEKTYYNPSLKSRATISIDTSKSQFSLKLSSVTAADTAVYYCPRGPTMIRGVIDSWGQGTLVTVSSGGGGSGGGGSGGGGSEIVLTQSPATLSLSPGERATLSCRASQSVRSYLAWYQQKPGQAPRLLIYDASNRATGIPARFSGSGSGTDFTLTISSLEPEDFAVYYCQQRSNWPPTFGQGTKVEIKGGGGSQLQVQESGPGLVKPSETLSLTCTVSGGSISNSYFSWGWIRQPPGKGLEWIGSFYYGEKTYYNPSLKSRATISIDTSKSQFSLKLSSVTAADTAVYYCPRGPTMIRGVIDSWGQGTLVTVSSGGGGSGGGGSGGGGSEIVLTQSPATLSLSPGERATLSCRASQSVRSYLAWYQQKPGQAPRLLIYDASNRATGIPARFSGSGSGTDFTLTISSLEPEDFAVYYCQQRSNWPPTFGQGTKVEIK | no binding | –
3 | hTGFbR2 VH3 G4S dimer (VHH, It is built here from its name (VH3 - G4S - VH3); Flag-tagged; also called hTGFbR2-VH3 dimer) EVQLLESGGGLVQPGGSLRLSCAASGFTFGTDQMWWVRQAPGKGLEFVSRIDSPGGRTYYANSVKGRFTISRDNSKNTLYLQMNSLRAEDTAVYYCAKRQPAGVSGKYVDYWGQGTLVTVSSGGGGSEVQLLESGGGLVQPGGSLRLSCAASGFTFGTDQMWWVRQAPGKGLEFVSRIDSPGGRTYYANSVKGRFTISRDNSKNTLYLQMNSLRAEDTAVYYCAKRQPAGVSGKYVDYWGQGTLVTVSS | no binding | –
4 | hTGFbR2 VH2 G4S dimer (VHH, Flag-tagged; also called hTGFbR2-VH2 dimer) EVQLLESGGGLVQPGGSLRLSCAASGSTFTEYRMWWVRQAPGKGLEWVSAIEPIGHRTYYANSVRGRFTISRDNSKNTLYLQMNSLRAEDTAVYYCAKQAPGEKWARRWDLDYWGQGTLVTVSSGGGGSEVQLLESGGGLVQPGGSLRLSCAASGSTFTEYRMWWVRQAPGKGLEWVSAIEPIGHRTYYANSVRGRFTISRDNSKNTLYLQMNSLRAEDTAVYYCAKQAPGEKWARRWDLDYWGQGTLVTVSS | no binding | –
5 | hTGFbR2 VH1 (VHH, Single domain VH; Secreted into CAR-T cell supernatant; Detected with anti-flag HRP) VHH: EVQLLESGGGLVQPGGSLRLSCAASGFTFGTEQMWWVRQAPGKGLEFVSRIDSPGGRTYYADSVKGRFTISRDNSKNTLYLQMNSLRAEDTAVYYCAKRRPTGVSGTFYDYWGQGTLVTVSS | – | binding result (hTGFβR2-Fc [3]): binds
6 | hTGFbR2 VH3 monomer (VHH, Flag-tagged) VHH: EVQLLESGGGLVQPGGSLRLSCAASGFTFGTDQMWWVRQAPGKGLEFVSRIDSPGGRTYYANSVKGRFTISRDNSKNTLYLQMNSLRAEDTAVYYCAKRQPAGVSGKYVDYWGQGTLVTVSS | no binding | binding result (hTGFβR2-Fc [4]): binds
7 | hTGFbR2 VH2 monomer (VHH, Flag-tagged (anti-flag HRP detection); also called TGFbR2 hVH2) VHH: EVQLLESGGGLVQPGGSLRLSCAASGSTFTEYRMWWVRQAPGKGLEWVSAIEPIGHRTYYANSVRGRFTISRDNSKNTLYLQMNSLRAEDTAVYYCAKQAPGEKWARRWDLDYWGQGTLVTVSS | no binding | binding result (hTGFβR2-Fc [4]): binds
8 | TGFbR2 scFv VL-VH (scFv, Secreted into CAR-T cell supernatant; Detected with anti-flag HRP) scFv: EIVLTQSPATLSLSPGERATLSCRASQSVRSYLAWYQQKPGQAPRLLIYDASNRATGIPARFSGSGSGTDFTLTISSLEPEDFAVYYCQQRSNWPPTFGQGTKVEIKGGGGSGGGGSGGGGSQLQVQESGPGLVKPSETLSLTCTVSGGSISNSYFSWGWIRQPPGKGLEWIGSFYYGEKTYYNPSLKSRATISIDTSKSQFSLKLSSVTAADTAVYYCPRGPTMIRGVIDSWGQGTLVTVSS | – | binding result (hTGFβR2-Fc [3]): binds
9 | mTGFbR2 VH1 (VHH, Single domain VH expressed in human CAR-T cells; Flag-tagged) VHH: EVQLLESGGGLVQPGGSLRLSCAASGFTFTTYGMGWVRQAPGKGLEWVSWIEKTGNKTYYADSVKGRFTISRDNSKNTLYLQMNSLRAEDTAVYYCAKARHIKVRSRDFDYWGQGTLVTVSS | – | binding result (hTGFβR2-Fc [5]): no binding

— patent US20240131158A1 (Takeda / Millennium, published 2024)
